The text below walks through data of paper PMC2199947.

The target in this assay is receptor-type protein tyrosine phosphatase PTPmu (endogenous, MvLu mink lung cells) (mink (endogenous in MvLu)). Briefly: co-IP.

Consider “130-kD cadherin of MvLu cells (natural protein)”, for which the percent of the cadherin cleared from the lysate by immunoprecipitation of PTPmu was found to be 80%.

Consider “116-kD cadherin of MvLu cells (natural protein)”, for which the percent of the cadherin cleared from the lysate by immunoprecipitation of PTPmu came to 80%.
